Measurements published in patent US20040146964A1 (ISIS INNOVATION, published 2004).
Numbering of substitutions follows the chain as printed. Names may count otherwise. Where no end group is shown, it is not given here. [ ]: non-standard residue; d: D form. Hyp = O=C(O)[C@@H]1C[C@@H](O)CN1

Assays:
[1] = target: T1, VHL E3 ubiquitin ligase complex containing HA tagged human pVHL (human, UniProt P40337 1-213); assay: VHL E3 interaction assay with 35S-labelled IVTT product
T1 construct: also called VHL E3 ligase; 786-0/VHL cell extract

mutant (Pro86His) pVHL [2] = target: T2, mutant (Pro86His) pVHL (human, UniProt P40337 1-213); assay: biotinylated peptide capture on streptavidin beads
T2 construct: also called mutant pVHL
Procedure: (§1) The 19:WT polypeptide was either incubated with cell extract before the binding assay or was untreated.

mutant (Pro86His) pVHL [3] = target: T2, mutant (Pro86His) pVHL; assay: biotinylated peptide, after cell extract, capture on streptavidin beads
Procedure: as §1

[4] = target: T3, C. elegans HIF P621G mutant (C. elegans, UniProt G5EGD2 1-719); assay: anti-HA co-IP of IVTT products
T3 construct: also called ceHIF Pro621-Gly; pcDNA1cehif.P621G
T3 sequence: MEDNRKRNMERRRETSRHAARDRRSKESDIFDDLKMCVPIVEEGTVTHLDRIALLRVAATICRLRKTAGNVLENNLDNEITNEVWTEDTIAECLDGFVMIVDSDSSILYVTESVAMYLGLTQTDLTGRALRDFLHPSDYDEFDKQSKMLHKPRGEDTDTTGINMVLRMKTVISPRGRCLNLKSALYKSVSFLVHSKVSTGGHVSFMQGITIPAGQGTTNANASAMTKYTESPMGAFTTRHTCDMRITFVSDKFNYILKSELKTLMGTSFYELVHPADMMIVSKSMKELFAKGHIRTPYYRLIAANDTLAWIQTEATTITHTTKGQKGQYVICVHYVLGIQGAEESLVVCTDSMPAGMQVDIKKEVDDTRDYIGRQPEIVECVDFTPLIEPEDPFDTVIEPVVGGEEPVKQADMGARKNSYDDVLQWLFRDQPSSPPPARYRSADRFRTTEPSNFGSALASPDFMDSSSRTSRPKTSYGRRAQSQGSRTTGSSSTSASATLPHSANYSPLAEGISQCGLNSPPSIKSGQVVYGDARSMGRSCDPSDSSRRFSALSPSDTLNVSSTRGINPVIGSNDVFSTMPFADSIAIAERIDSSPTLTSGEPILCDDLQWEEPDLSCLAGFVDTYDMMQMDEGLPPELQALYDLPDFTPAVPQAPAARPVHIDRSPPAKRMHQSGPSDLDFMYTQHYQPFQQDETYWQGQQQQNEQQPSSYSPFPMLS
Procedure: (§2) For interaction assays 1 μl of each programmed lysate was mixed in EBC buffer at 4° C. for 1 hr before anti-HA immunoprecipitation as described in Cockman et al. Pretreatment of ceHIF with worm extract was for 30 min at 25° C. with 10 μI of extract derived by hypotonic extraction of a worm homogenate in 20 mM Tris pH7.5, 5 mMKCl, 1.5 MgCl2, 1 mMDTT.

[5] = target: T4, C. elegans HIF-α homologue, wild type (C. elegans, UniProt G5EGD2 1-719); assay: anti-HA co-IP of reticulocyte IVTTs, ceHIF pre-treated with worm extract
T4 construct: 35S-labelled reticulocyte IVTT from pcDNA1cehif; also called ceHIF; HIF-1 (C. elegans)
T4 sequence: T3 sequence with G621P
Procedure: as §2

T1 sequence (P40337 whole entry, one chain of several): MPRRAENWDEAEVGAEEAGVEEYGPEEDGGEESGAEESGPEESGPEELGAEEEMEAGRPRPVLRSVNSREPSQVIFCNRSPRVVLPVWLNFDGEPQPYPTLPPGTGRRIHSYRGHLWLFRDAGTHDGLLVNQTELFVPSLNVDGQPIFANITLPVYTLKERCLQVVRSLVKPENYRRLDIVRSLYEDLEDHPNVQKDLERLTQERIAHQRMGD
T2 sequence (P40337 whole entry P86H): as the sequence (P40337 whole entry, one chain of several) above, with P86H counted along it

## PFSTQDTDLDLEMLAGYIPMDDDFQLRSFDQLSP (other) [tat-CODD proline mutant (HIF-1α 549-582/P564G)]
[1]
  binding result: no binding

## DLDLEMLA[Hyp]YIPMDDDFQL (also: biotinylated version used in pVHL capture assays, also called 19:Pro564Hyp; B19Hyp)
Mutant (Pro86His) pVHL [2]
  binding result: no binding

## DLDLEMLAPYIPMDDDFQL (also: biotinylated version used in pVHL capture assays, also called 19:WT; 19 WT) [synthetic polypeptide of HIF-1α residues 556-574, unmodified]
Mutant (Pro86His) pVHL [3]
  binding result: no binding

B1: c-terminal HA tagged ceVHL (other, not shown: small tags and cut ends)
chain: MSDGSMDDDGRLFPDLGSSTHDNREIRVRFLNRCAYPVDVFWLNPSKQPTKYGTLAQKKYLDIKTFKDHPWVARRSFDGCKVLVNEKEVFWPEPAPRMNLIVRNHCVITMKVQSLREIAGRSFLRHNPTEVPNKIKGLPRELQFEVKHFLDRKQEYSEIVCRSIPPPGPQRPQQ
notes: also called ceVHL-HA
[4]
  binding result: no binding
[5]
  binding result: binds

B2: tat-NODD proline mutant (HIF-1α 343-417/P402A) (other)
chain: SGIIQHDLIFSLQQTECVLKPVESSDMKMTQLFTKVESEDTSSLFDKLKKEPDALTLLAAAAGDTIISLDFGSND
[1]
  binding result: no binding
